For two variants, response results are on record in article PMC5415106.

First the molecules themselves.
B1: GST-Dpb11-wild-type [budding yeast] / Cdc45 (purified, radiolabelled) [budding yeast] (parent)
chain 1: MKPFQGITFCPTAINNEILAKKISKKIIKLGGIFSKDLTRQVNVLVVGSTTNTNKFKFAVKHRFDIIFIDIQAIDDIYQLWLSGENILPDSNTATMTGSTYEMLKILYRRFSFKYLHNFNIFIGRITDTNITSIDSLVRSIKKLGCSSYNYQNFVIKDTSSHNDDDDQGQNGQISIFVTDTLLGARVNAAIEQNIPIVHFKWILDCQKRSALLPYDPYYLLPNIKDLPYDSIGSNSCDCWDKINTTFPTNIDAQSSLQRQQSSSTLTPSLPKTSSLLNKFKPKGEKIWDKAMSLQQHSKTNFSVLGQSPLSINNKQEDLSDNSTLIFKNCAFIIHHIFPGNHRSILTKIVVQNGGKIETSYLSGIYDHSYYIIPSNKALDSFNDLPEIIDDNDGIVTEFFIERCLYYQKLLHPIDLWSKPFLSTIEFQVSSSSKLLHHEFSSSPFLNVTITGFSGVELLHLTKVLNLLKPMGINYVEYLNKSTDILLINLAALPSIPKTHPLWSNEFSDLFTQFCINNNNDDPGDNNRKDFQNNSILRNSMKRKIEYIKKFHSIPVVTPAFIFKLLSAASGENNEIFLNNIKWCIICPRGHKDDFKCKIKKPYYTSISSEKKYQNNDPKIDKTILLKRNNSSLSEHSMKDTKNELLQKIRETDSGRKKRSVSSSIMDVSSERQMPDTKRIKLESLPKNFVPKQIKRTTSWGTIMSENVPTEQPTAISNPEEIPRTEEVSHTQVTYGSIQDKKRTASLEKPMRRQTRNQTKELDS
chain 2: MYYGISQFSEAYNKILRNSSSHSSCQLVIFVSCLNIDALCATKMLSLLFKKQLVQSQIVPIFGYSELRRHYSQLDDNINSLLLVGFGGVIDLEAFLEIDPQEYVIDTDEKSGEQSFRRDIYVLDAHRPWNLDNIFGSQIIQCFDDGTVDDTLGEQKEAYYKLLELDEESGDDELSGDENDNNGGDDEATDADEVTDEDEEDEDETISNKRGNSSIGPNDLSKRKQRKKQIHEYEGVLEEYYSQGTTVVNSISAQIYSLLSAIGETNLSNLWLNILGTTSLDIAYAQVYNRLYPLLQDEVKRLTPSSRNSVKTPDTLTLNIQPDYYLFLLRHSSLYDSFYYSNYVNAKLSLWNENGKKRLHKMFARMGIPLSTAQETWLYMDHSIKRELGIIFDKNLDRYGLQDIIRDGFVRTLGYRGSISASEFVEALTALLEVGNSTDKDSVKINNDNNDDTDGEEEEDNSAQKLTNLRKRWVSNFWLSWDALDDRKVELLNRGIQLAQDLQRAIFNTGVAILEKKLIKHLRIYRLCVLQDGPDLDLYRNPLTLLRLGNWLIECCAESEDKQLLPMVLASIDENTDTYLVAGLTPRYPRGLDTIHTKKPILNNFSMAFQQITAETDAKVRIDNFESSIIEIRREDLSPFLEKLTLSGLL
B2: GST-Dpb11-wild-type [budding yeast] / PKA-Sld2T84D [modified: 32P-phosphate on the artificial PKA site; 32P-phosphate on the artificial PKA site] [budding yeast] (parent)
chain 1: B1 chain 1
chain 2: MYSFELDKLKIELKTWEHDFIDKNKREPTRDDIKSLRTVRQMYKQYSTLKKKQSLQRQKVDTQESVELPAHKKDHDEVVEIGPDPQVYGKAISIFDMNLSPIKPIYMTFTNNIDVNNDNSKTISNESSPRKTILLKSSPADRTLVAEPISSVKRQLNFQMLNASSTRTPTSSPCKNRNGKLVEIKKCSPTINPPLESGKPSGYYGPNSPLKLDEENIHLNISLNSSTKRRLQIAYPSLQKTPSKDQADISTSFSPSPLIRRPLTKSLIELAREHTEIVKEFGVLQEEDIEEEEEGEEGENGYDEKNHEDDFGLEDELIRPKVVKDIFQEDDDNDDSQAREDTFIRKRPKRRKVIRRLRDNDPETETAGFERDVHKELVKLKRRKVAEFLGSTSQISDTEFEHDPEASSGVVSSEQKPTAKRKGRKKYNLVSNNFRRLKLPKKNRFSNGRWGRR

In experiment [1] the parent is B1. In words: GST pull-down, phosphorimaging. As to conditions: with Cdc45 (purified, radiolabelled) [budding yeast], 10 pmoles GST-Dpb11, read off a plot.
In experiment [2] the parent is B2. The experiment is described as follows: GST pull-down, phosphorimaging. As to conditions: with PKA-Sld2T84D [modified: 32P-phosphate on the artificial PKA site.

For chain 1 K463E K469E R538E K549E, the response in experiment [1] (1 pmole Cdc45 input, parent: 0.11) was 0.1 pmol; in experiment [1] (3 pmoles Cdc45 input, parent: 0.44), 0.42 pmol; in experiment [1] (10 pmoles Cdc45 input, parent: 0.89), 0.85 pmol.
As for chain 1 K463E K469E R538E K549E, the response is 0.3 pmol in experiment [2] (10 pmoles GST-Dpb11, 1 pmole Sld2T84D input, parent: 0.28, read off a plot); 0.72 pmol in experiment [2] (10 pmoles GST-Dpb11, 3 pmoles Sld2T84D input, parent: 0.64, read off a plot); 1.7 pmol in experiment [2] (10 pmoles GST-Dpb11, 10 pmoles Sld2T84D input, parent: 1.6, read off a plot).
